± gives the uncertainty stated by the source.
Experiment: self-splicing fitness, log relative to wild type (ln ratio); higher = more splicing; Tetrahymena group I intron in knt gene, E. coli kanamycin selection, DiMSum; sequences stand for … in CUCUCU…GGAGGGAAAAGUUAUCAGGCAUGCACCUGGUAGCUAGUCUUUAAACCAAUAGAUUGCAUCGGUUUAAAAGGCAAGACCGUCAAAUUGCGGGAAAGGGGUCAACAGCCGUUCAGUACCAAGUCUCAGGGGAAACUUUGAGAUGGCCUUGCAAAGGGUAUGGUAAUAAGCUGACGGACAUGGUCCUAACCACGCAGCCAAGUCCUAAGUCAACAGAUCUUCUGUUGAUAUGGAUGCAGUUCACAGACUAAAUGUCGGUCGGGGAAGAUGUAUUCUUCUCAUAAGAUAUAGUCGGACCUCUCCUUAAUGGGAGCUAGCGGAUGAAGUGAUGCAACACUGGAGCCGCUGGGAACUAAUUUGUAUGCGAAAGUAUAUUGAUUAGUUUUGGAGUACUCGUGGUCG
How it was run: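 Colonies from six replicate transformations of E. coli BL21(DE3) were pooled and amplicon-sequenced on an Illumina HiSeq 2500. The library placed an intron with all eight P1ex-region nucleotides randomised inside the knt kanamycin-resistance gene on pET-22b(+), and cells grew overnight at 37°C or 30°C on LB agar with or without 25 μg/mL kanamycin (plus 100 μg/mL carbenicillin, 50 μM IPTG, 0.2% rhamnose). Fitness is the DiMSum error-weighted combination of wild-type-normalised replicate fold changes, kanamycin versus none.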

| Sequence | self-splicing fitness (ln) (30 °C) | self-splicing fitness (ln) (37 °C) |
| --- | --- | --- |
| AGAUAGCAAUAUUACGCGGC | -3.16 ± 0.22 | -3.59 ± 0.42 |
| AGAUAGCAAUAUUACGCUGG | -3.38 ± 0.34 | -1.56 ± 0.25 |
| AGAUAGCAAUAUUACGCUUC | -2.66 ± 0.42 | -2.27 ± 0.49 |
| AGAUAGCAAUAUUACGCUUG | -2.48 ± 0.12 | -0.783 ± 0.13 |
| AGAUAGCAAUAUUACGGACG | -0.861 ± 0.15 | -0.892 ± 0.15 |
| AGAUAGCAAUAUUACGGAGG | -4.37 ± 0.26 | -3.22 ± 0.26 |
| AGAUAGCAAUAUUACGGGCU | -1.34 ± 0.15 | -1.38 ± 0.21 |
| AGAUAGCAAUAUUACGGUCC | -1.27 ± 0.14 | -1.03 ± 0.18 |
| AGAUAGCAAUAUUACGUAAA | -2.53 ± 0.17 | -1.74 ± 0.14 |
| AGAUAGCAAUAUUACGUAAC | -3.68 ± 0.35 | -2.01 ± 0.23 |
| AGAUAGCAAUAUUACGUAGU | -2.61 ± 0.11 | -2.46 ± 0.15 |
| AGAUAGCAAUAUUACGUCAG | -2.66 ± 0.15 | -1.01 ± 0.13 |
| AGAUAGCAAUAUUACGUGAA | -1.95 ± 0.082 | -1.85 ± 0.12 |
| AGCAAGCAAUAUUACGAAAC | -4.25 ± 0.25 | -1.03 ± 0.13 |
| AGCAAGCAAUAUUACGACCG | -0.988 ± 0.069 | -0.512 ± 0.097 |
| AGCAAGCAAUAUUACGACUU | 0.234 ± 0.098 | -0.294 ± 0.11 |
| AGCAAGCAAUAUUACGAUAG | -2.98 ± 0.21 | -2.04 ± 0.2 |
| AGCAAGCAAUAUUACGAUCA | -0.258 ± 0.084 | -0.0192 ± 0.099 |
| AGCAAGCAAUAUUACGCAAA | -3.11 ± 0.27 | -2.23 ± 0.24 |
| AGCAAGCAAUAUUACGCAAU | -2.54 ± 0.15 | -1.41 ± 0.13 |
| AGCAAGCAAUAUUACGCACG | -1.44 ± 0.097 | -0.144 ± 0.13 |
| AGCAAGCAAUAUUACGCAUG | -3.32 ± 0.16 | -2.74 ± 0.2 |
| AGCAAGCAAUAUUACGCGAA | -2.39 ± 0.1 | -0.85 ± 0.099 |
| AGCAAGCAAUAUUACGCGCA | -0.742 ± 0.07 | 0.548 ± 0.11 |
| AGCAAGCAAUAUUACGCGCU |  | -2.2 ± 0.32 |

| Sequence | self-splicing fitness (ln) (30 °C) | self-splicing fitness (ln) (37 °C) |
| --- | --- | --- |
| AGCAAGCAAUAUUACGCGUU | -2.89 ± 0.17 | -2.44 ± 0.19 |
| AGCAAGCAAUAUUACGGACA | -1.12 ± 0.14 | -0.766 ± 0.14 |
| AGCAAGCAAUAUUACGGAGA | -3.25 ± 0.17 | -2.35 ± 0.19 |
| AGCAAGCAAUAUUACGGAGG | -4.63 ± 0.46 | -2.28 ± 0.33 |
| AGCAAGCAAUAUUACGGCAC | -0.889 ± 0.08 | -0.371 ± 0.11 |
| AGCAAGCAAUAUUACGGCCU | -0.383 ± 0.094 | 0.167 ± 0.13 |
| AGCAAGCAAUAUUACGGGAG | -3.68 ± 0.19 | -1.78 ± 0.13 |
| AGCAAGCAAUAUUACGGGCU | -2.45 ± 0.22 | -2.09 ± 0.31 |
| AGCAAGCAAUAUUACGGGUC | -2.05 ± 0.22 | -1.82 ± 0.21 |
| AGCAAGCAAUAUUACGUAAA | -2.29 ± 0.14 | -0.968 ± 0.15 |
| AGCAAGCAAUAUUACGUACA | -1.22 ± 0.074 | -0.296 ± 0.085 |
| AGCAAGCAAUAUUACGUGCU | -2.38 ± 0.14 | -2.07 ± 0.16 |
| AGCAAGCAAUAUUACGUUAU | -2.78 ± 0.11 | -1.54 ± 0.12 |
| AGCAAGCAAUAUUACGUUCU | -0.601 ± 0.084 | -0.279 ± 0.087 |
| AGCAAGCAAUAUUACGUUUA | -2.1 ± 0.13 | -1.96 ± 0.15 |
| AGCCAGCAAUAUUACGAACU | -0.257 ± 0.11 | 0.407 ± 0.14 |
| AGCCAGCAAUAUUACGACUC | -4.9 ± 0.46 | -2.49 ± 0.27 |
| AGCCAGCAAUAUUACGAGUC |  | -1.61 ± 0.21 |
| AGCCAGCAAUAUUACGAUUG | -4.59 ± 0.3 | -0.923 ± 0.19 |
| AGCCAGCAAUAUUACGAUUU | -2.3 ± 0.1 | -1.24 ± 0.11 |
| AGCCAGCAAUAUUACGCACG | -2.34 ± 0.11 | -0.605 ± 0.12 |
| AGCCAGCAAUAUUACGCCAG | -3.96 ± 0.27 | -2.23 ± 0.16 |
| AGCCAGCAAUAUUACGCCGG |  | -3.39 ± 0.27 |
| AGCCAGCAAUAUUACGCCUC |  | -0.728 ± 0.44 |
| AGCCAGCAAUAUUACGGAAU | -1.76 ± 0.12 | -1.52 ± 0.14 |

| Sequence | self-splicing fitness (ln) (30 °C) | self-splicing fitness (ln) (37 °C) |
| --- | --- | --- |
| AGCCAGCAAUAUUACGGAGA | -2.57 ± 0.16 | -1.34 ± 0.15 |
| AGCCAGCAAUAUUACGGCAC | -1.26 ± 0.13 | -0.402 ± 0.15 |
| AGCCAGCAAUAUUACGGCCA | -0.79 ± 0.089 | -0.322 ± 0.11 |
| AGCCAGCAAUAUUACGGGUG | -2.15 ± 0.075 | -0.713 ± 0.085 |
| AGCCAGCAAUAUUACGGUGC | -2.49 ± 0.12 | -2.28 ± 0.17 |
| AGCCAGCAAUAUUACGGUUA | -0.713 ± 0.13 | -0.226 ± 0.11 |
| AGCCAGCAAUAUUACGUAGG | -3.77 ± 0.2 | -3.33 ± 0.24 |
| AGCCAGCAAUAUUACGUCAA | -3.18 ± 0.22 | -2.53 ± 0.21 |
| AGCCAGCAAUAUUACGUCAG | -3.58 ± 0.17 | -2.77 ± 0.23 |
| AGCCAGCAAUAUUACGUCAU | -2.29 ± 0.12 | -0.981 ± 0.15 |
| AGCCAGCAAUAUUACGUCGG | -3.89 ± 0.3 | -2.97 ± 0.32 |
| AGCCAGCAAUAUUACGUGCC | -2.96 ± 0.15 | -1.98 ± 0.14 |
| AGCGAGCAAUAUUACGAACG | -2.14 ± 0.29 | -1.5 ± 0.2 |
| AGCGAGCAAUAUUACGACCA | -1.37 ± 0.22 | -1.08 ± 0.22 |
| AGCGAGCAAUAUUACGAGAG | -3.19 ± 0.32 | -2.94 ± 0.32 |
| AGCGAGCAAUAUUACGAGGU | -3.69 ± 0.24 | -2.48 ± 0.3 |
| AGCGAGCAAUAUUACGCACC | -0.941 ± 0.45 | -0.411 ± 0.37 |
| AGCGAGCAAUAUUACGCCGU |  | -1.24 ± 0.34 |
| AGCGAGCAAUAUUACGCGCG | -4.04 ± 0.33 | -1.89 ± 0.25 |
| AGCGAGCAAUAUUACGGAAG | -4.34 ± 0.42 | -2.68 ± 0.29 |
| AGCGAGCAAUAUUACGGCCG | -2.6 ± 0.34 | -1.72 ± 0.26 |
| AGCGAGCAAUAUUACGGCGC | -2.72 ± 0.22 | -1.98 ± 0.2 |
| AGCGAGCAAUAUUACGGGAA |  | -1.86 ± 0.27 |
| AGCGAGCAAUAUUACGGGGA | -2.64 ± 0.35 | -1.22 ± 0.22 |
| AGCGAGCAAUAUUACGGGGG | -2.6 ± 0.33 | -2.04 ± 0.41 |

| Sequence | self-splicing fitness (ln) (30 °C) | self-splicing fitness (ln) (37 °C) |
| --- | --- | --- |
| AGCGAGCAAUAUUACGUAUC |  | -3.38 ± 0.39 |
| AGCGAGCAAUAUUACGUCUG | -2.03 ± 0.11 | -1.8 ± 0.14 |
| AGCGAGCAAUAUUACGUGAC | -3.4 ± 0.28 |  |
| AGCGAGCAAUAUUACGUGGC | -4.97 ± 0.31 | -2.46 ± 0.2 |
| AGCGAGCAAUAUUACGUGGU | -3.2 ± 0.25 | -3.06 ± 0.22 |
| AGCGAGCAAUAUUACGUUAG | -2.38 ± 0.11 | -3.18 ± 0.27 |
| AGCGAGCAAUAUUACGUUUA |  | -1.96 ± 0.26 |
| AGCUAGCAAUAUUACGACGC | -1.63 ± 0.098 | -0.406 ± 0.13 |
| AGCUAGCAAUAUUACGACUC | -2.01 ± 0.16 | -1.24 ± 0.15 |
| AGCUAGCAAUAUUACGAGCC | -3.51 ± 0.32 | -2.5 ± 0.49 |
| AGCUAGCAAUAUUACGAGUA | -1.65 ± 0.15 | -0.618 ± 0.12 |
| AGCUAGCAAUAUUACGAGUU | -2.58 ± 0.16 | -2.45 ± 0.22 |
| AGCUAGCAAUAUUACGAUUU | -0.0195 ± 0.06 | 0.214 ± 0.086 |
| AGCUAGCAAUAUUACGCAGA | -3.4 ± 0.34 | -1.82 ± 0.18 |
| AGCUAGCAAUAUUACGCCGC | -2.36 ± 0.2 | -3.06 ± 0.47 |
| AGCUAGCAAUAUUACGCCGG | -2.94 ± 0.2 | -1.85 ± 0.34 |
| AGCUAGCAAUAUUACGCGAA | -3.09 ± 0.23 | -1.24 ± 0.22 |
| AGCUAGCAAUAUUACGCGCG | -0.92 ± 0.18 | -0.121 ± 0.17 |
| AGCUAGCAAUAUUACGCUCG | -2.6 ± 0.19 | -1.53 ± 0.17 |
| AGCUAGCAAUAUUACGGACC | -0.63 ± 0.12 | -0.00494 ± 0.17 |
| AGCUAGCAAUAUUACGGCCA | -0.689 ± 0.15 | 0.469 ± 0.18 |
| AGCUAGCAAUAUUACGGCUU | -3.43 ± 0.21 | -2.62 ± 0.23 |
| AGCUAGCAAUAUUACGGGCU | -3.47 ± 0.27 | -2.91 ± 0.36 |
